B1: Nb157: THP-1 specific llama nanobody binding CD13, SEQ ID NO: 19 (protein)
VHH: AAQAAQVQLQESGGGLVQPGGSLSLSCTASGFTFSSYSMAWVRQAPGKGPEWVSGIYPSDGKTRYADFVKGRFSISRDNAKNMLYLQMNNLEPEDTALYYCARGITGLGPRGQGTQVTVSSAA
modifications: VHH157
B2: Nb163: THP-1 specific llama nanobody binding CD13, SEQ ID NO: 24 (protein)
VHH: AAQAAQVQLQESGGGLVQPGGSLRLSCVPSGFTFDGYLIGWFRQAPGSERKAVSCISVNGDRTNYADSVKGRFTISRDNAKNTVYLQMNSLRPNDTAIYYCATRRGNRLYNNNCPYFEYGTWGQGTQVTVSSAA
modifications: VHH163
B3: Nb157-N-PNE: Nb157 with N-terminal PNE; inducible nanobody switch (protein)
chain: B1 VHH
modifications: left off: small tags and cut ends
notes: Nb157 with N-terminal PNE; inducible nanobody switch
B4: VLV: VHH1 homodimer connected by a linker (protein)
VHH 1: QVQLQESGGGLVQPGGSTRLSCVSSRTFSYYDMGWFRQAPGKEREFVALLSWNGENAEYSDSVMGRFTVSRGNTQNSVNLQMNNLKPEDTGIYYCAVTHGGARSVRSWGQGTQVTVSS
VHH 2: B4 VHH 1
modifications: left off: small tags and cut ends
notes: VHH1 homodimer connected by a linker

Experiments:
THP-1 cells [1] = test: Flow cytometry binding of nanobodies to THP-1 cells; parameters: species or system human
From the text: FIGS. 1A-1C are series of images and graphs depicting the steps for generating nanobodies that both differentially bind tumor cells and empower CAR T cells to kill the tumor cells. FIG. 1A: Flow chart of AML specific CAR compatible nanobodies in vivo screening. Llama was immunized with AML cell line THP-1. Nanobody library was generated from the llama PMBC including B cells by molecular cloning. Two rounds of conventional cell-based phage display were applied, which took T-ALL cell line Jurkat or chronic myelogenous leukemia (CML) cell line K-562 as negative absorption, followed by one round of count-selection. The resultant THP-1 specific nanobodies were inserted into a chimeric antigen receptor expressing lenti-vector to generate Nb-CAR library. Human primary T cells were transduced by the Nb-CAR library and injected into THP-1 or K562 borne NSG mice to perform the in vivo selection. Nbs that can adapt T cells to enrich in the tumor were PCR-amplified and sequenced. […]
FIGS. 6A-6H are series of images and graphs depicting that Nb switch-activated CAR T cells eradicate AML in vivo in a controllable manner. […] The engraftment volumes were monitored by measuring the lengths and widths of the tumors. […] The primary leukemia or CAR T cells in the mouse peripheral blood were monitored by staining with CD33 or CD3 fluorescence labeled antibodies.

Jurkat cells = test: Flow cytometry binding of nanobodies to Jurkat cells; parameters: species or system human
From the text: (§1) FIGS. 1A-1C are series of images and graphs depicting the steps for generating nanobodies that both differentially bind tumor cells and empower CAR T cells to kill the tumor cells. FIG. 1A: Flow chart of AML specific CAR compatible nanobodies in vivo screening. Llama was immunized with AML cell line THP-1. Nanobody library was generated from the llama PMBC including B cells by molecular cloning. Two rounds of conventional cell-based phage display were applied, which took T-ALL cell line Jurkat or chronic myelogenous leukemia (CML) cell line K-562 as negative absorption, followed by one round of count-selection. The resultant THP-1 specific nanobodies were inserted into a chimeric antigen receptor expressing lenti-vector to generate Nb-CAR library. Human primary T cells were transduced by the Nb-CAR library and injected into THP-1 or K562 borne NSG mice to perform the in vivo selection. Nbs that can adapt T cells to enrich in the tumor were PCR-amplified and sequenced. FIG. 1B: 10 million THP-1 cells or 5 million K562 cells were transplanted into NSG mice subcutaneously, followed by treatment of untransduced (UTD) T cells or Nb-lib-CAR T cells. 2 weeks later, Nbs from tumor infiltrated T cells were isolated and identified by PCR amplification. FIG. 1C: Top 5 frequent Nbs in the THP-1 tumor were listed and tested for their recognition to the THP-1 cells, Jurkat cells, or K-562 cells.

K562 cells = test: Flow cytometry binding of nanobodies to K562 cells; parameters: species or system human
From the text: as §1

[2] = system: other AML cell lines like HL60, NB4, and U937; test: Recognition of other AML cell lines by THP-1 specific Nbs; assay type: binding, human
Protocol: FIG. 7 is series of a table and graphs depicting the affinity test of VHHs against variant of AML cell lines and patient derived AMLs. The four THP-1 specific Nbs were tested for their recognition to other AML cell lines. + was <0.5 log shift, ++ was <1.0 log shift, +++ was <1.5 log shift, − was no binding.

[3] = molecular target: T1, human full length aminopeptidase N (APN, aka CD13) (Homo sapiens, UniProt P15144); test: Flow cytometry of nanobody phage on HEK293T cells transfected with membrane protein cDNA; assay type: binding; conditions: nanobody-expressing phage
T1 construct: expressed in transfected cells; host or cells: HEK293T
From the text: (§2) FIGS. 4A-4F are series of images and graphs illustrating the identification of CD13 as a target to kill AML cells by CAR T cells. FIG. 4A: Experiment schema: About 3000 cell membrane protein cDNAs were purified and transfected into HEK293T cells separately, followed by flow analysis with the nanobodies expressing phage and FITC-labeled secondary antibody against phage M13 protein. FIG. 4B: Flow analysis of nanobodies binding to the HEK293T cells with CD13 overexpression. FIG. 4C: CD13 cDNA expression confirmed in HEK293T cells by western blot. FIG. 4D: Western blot to confirm the gRNA/CRISPR guided CD13 knockout effect in THP-1 cells. Three independent gRNAs were transduced into THP-1 separately, followed by puromycin selection and single individual clone expansion. FIG. 4E: Flow analysis of Nb157 or Nb163 binding CD13 knockout THP-1 cells. FIG. 4F: Killing assay of Nbs CAR T cells to the THP-1 wild type (wt) or THP-1 cd13-ko.
To identify the protein antigens of the isolated nanobodies, about 3000 human cell membrane protein cDNAs were prepared and transfected into HEK293T cells individually, followed by flow cytometry detection with the nanobody-expressing phage and FITC-labeled secondary antibody against phage M13 protein (FIG. 4A). […] As a confirmation, human CD13 cDNA expression was also shown by western blot (FIG. 4C). CD13 is preferentially expressed in acute myeloid blast cells.

[4] = system: CD13 knockout THP-1 cells; test: Flow analysis of Nb binding to CD13 knockout THP-1 cells; parameters: species or system human; conditions: flow cytometry
From the text: as §2
To knockout CD13 in THP-1 cell line, LentiCRISPRv2.0 vector was applied according to the protocol (Sanjana, N. E. et al, (2014) Nature methods 11, 783-784). sgRNA targeting human CD13 were listed as below, sgCD13-1 […] (SEQ ID NO: 14), sgCD13-2 […] (SEQ ID NO: 15), […]. Plasmids were confirmed by sequencing and packaged into lentivirus, followed by infecting THP-1 cells. […]

[5] = system: patient-derived AML cells; test: Flow analysis of Nb binding to patient derived AML cells; parameters: species or system human; conditions: patient AML2844
Protocol: FIGS. 5A-5B: Both Nb157 and Nb163 recognized the patient derived AML cells by flow analysis. FIGS. 5C-5D: Both Nb157 and Nb163 CAR T cells specifically killed the patient derived AML cells in vitro in a dose dependent manner. […] In brief, 20 million of Patient derived AML cells were injected into NSG mouse, followed by 3 million of Nb157 CAR T cells or UTD T cells treatment. The survival of mice was monitored. Each group n=10. FIGS. 5F-5I: Patient derived AML in NSG bone marrow and spleen were monitored after Nb157 CAR T cell treatment by staining with anti-human CD45/CD3/CD33, followed by flow cytometry analysis. FIGS. 5J-5K: At the end points of each group of experiment, the mice spleens were harvested and fixed by paraformaldehyde, followed by immunofluorescence staining of the anti-human CD3/CD33 and DAPI (Nuclear).
To further determine whether the Nb157 CAR T cells can also kill the patient-derived AML cells, CD13 expression of the leukemia cells from patient AML2844 was examined. […] Thereafter, the therapeutic effect of the CAR T cells on the mice with the patient-derived AML cells was examined. To this end, the NSG mice were transplanted with the primary AML cells, followed by treatment with either control UTD or Nb157 CAR T cells.

CD13-/- THP-1 cell lines = test: Killing assay on THP-1 cd13-ko cells; assay type: cell-based, human; conditions: THP-1 cd13-ko vs wild type
From the text: as §2
Killing assays were performed as previously described (Cao, L. F. et al. (2010) Cytometry A 77, 534-545). In brief, target cells were labeled by anti-CD33 (BD) for detecting cell number with flow cytometry analysis or labeled by CellTrace Far Red for tracing cell division. Target cells were incubated with effector T cells for 16 hrs at a series of ratios. […] Quantification were calculated by either Countbright beads or volume. […]

THP-1 cells [6] = test: Killing assay of Nb157-PNE-mediated sCAR system; assay type: cell-based, human; conditions: sCAR T to THP-1 2:1, 16 hours
From the text: FIGS. 6A-6H are series of images and graphs depicting that Nb switch-activated CAR T cells eradicate AML in vivo in a controllable manner. FIGS. 6A-6B: Schematic diagram of switchable CAR T system. The Nb157 was expressed and purified by fusing with PNE, a fourteen amino acid peptide, either at N terminal or C terminal of the Nanobody. Primary human T cells were engineered by lentivirus transduction of scFv CAR that recognized PNE specifically. FIG. 6C: Test the affinity of Nb157, Nb157-N-PNE or Nb157-C-PNE against THP-1 cells by flow cytometry analysis. FIG. 6D: Killing assay of Nb157-PNE-mediated sCAR system against THP-1 cells in series of switch concentrations. The ratio of sCAR T to THP-1 was 2:1 and assay was performed after 16 hours incubation. FIG. 6E: 10 million THP-1 cells were transplanted into NSG mice subcutaneously to form the 150 mm^3 of tumors. […] The engraftment volumes were monitored by measuring the lengths and widths of the tumors. […] The primary leukemia or CAR T cells in the mouse peripheral blood were monitored by staining with CD33 or CD3 fluorescence labeled antibodies.
Killing assays were performed as previously described (Cao, L. F. et al. (2010) Cytometry A 77, 534-545). […] Quantification were calculated by either Countbright beads or volume.

BON cells = test: Flow cytometry binding of VLV or VLV-DM1 to BON cells; parameters: species or system human
Protocol: (§3) Scale bar: […]. […] Scale bar: […].

QGP1 cells = test: Flow cytometry binding of VLV or VLV-DM1 to QGP1 cells
Protocol: as §3

T1 sequence (P15144 whole entry): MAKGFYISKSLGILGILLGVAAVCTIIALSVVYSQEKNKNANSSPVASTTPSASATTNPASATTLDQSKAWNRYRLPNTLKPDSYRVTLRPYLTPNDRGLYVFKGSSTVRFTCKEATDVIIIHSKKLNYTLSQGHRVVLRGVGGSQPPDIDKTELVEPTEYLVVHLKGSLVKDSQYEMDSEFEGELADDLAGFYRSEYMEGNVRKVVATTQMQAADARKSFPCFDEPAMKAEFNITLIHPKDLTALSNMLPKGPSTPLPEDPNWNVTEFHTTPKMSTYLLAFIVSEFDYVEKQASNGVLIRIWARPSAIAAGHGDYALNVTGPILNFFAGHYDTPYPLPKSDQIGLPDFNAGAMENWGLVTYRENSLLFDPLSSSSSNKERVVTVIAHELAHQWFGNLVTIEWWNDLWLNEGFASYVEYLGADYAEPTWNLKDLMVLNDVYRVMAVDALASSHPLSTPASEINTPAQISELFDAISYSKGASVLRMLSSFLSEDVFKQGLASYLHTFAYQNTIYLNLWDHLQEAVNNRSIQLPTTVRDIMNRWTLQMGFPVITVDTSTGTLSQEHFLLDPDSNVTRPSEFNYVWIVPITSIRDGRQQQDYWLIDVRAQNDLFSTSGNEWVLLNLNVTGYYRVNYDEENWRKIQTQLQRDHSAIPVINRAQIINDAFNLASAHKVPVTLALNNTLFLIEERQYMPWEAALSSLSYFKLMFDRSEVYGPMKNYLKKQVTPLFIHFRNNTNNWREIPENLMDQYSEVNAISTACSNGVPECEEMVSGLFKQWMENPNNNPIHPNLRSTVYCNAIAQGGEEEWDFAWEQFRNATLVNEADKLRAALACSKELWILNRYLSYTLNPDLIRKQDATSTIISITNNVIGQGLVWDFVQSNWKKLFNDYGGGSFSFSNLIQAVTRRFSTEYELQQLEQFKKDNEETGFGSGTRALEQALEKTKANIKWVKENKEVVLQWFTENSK

| Molecule | binding to THP-1 cells (THP-1 cells [1]) | binding to Jurkat cells (Jurkat cells) | binding to K562 cells (K562 cells) | binding to other AML cell lines [2] | binding to cells transfected with human CD13 [3] | binding after CD13 knockout in THP-1 [4] | recognition of patient-derived AML cells [5] | killing of target cells after CD13 knockout (CD13-/- THP-1 cell lines) | switch-triggered killing of THP-1 cells by sCAR T cells (THP-1 cells [6]) | binding to BON cells (BON cells) | binding to QGP1 cells (QGP1 cells) |
| --- | --- | --- | --- | --- | --- | --- | --- | --- | --- | --- | --- |
| B1 | specifically bound THP-1 cells | but not Jurkat or K562 cells | but not Jurkat or K562 cells | also bound other AML cell lines like HL60, NB4, and U937 | bound the cells transfected with human full length aminopeptidase N | CD13 knockout abrogated the binding | detected the CD13 expression on the primary AML cells |  |  |  |  |
| B2 | specifically bound THP-1 cells | but not Jurkat or K562 cells | but not Jurkat or K562 cells | also bound other AML cell lines like HL60, NB4, and U937 | bound the cells transfected with human full length aminopeptidase N | CD13 knockout abrogated the binding | detected the CD13 expression on the primary AML cells | diminished the killing of Nb163 to the targets significantly, but cannot abrogated the effect completely |  |  |  |
| B3 |  |  |  |  |  |  |  |  | slightly reduced the cytolysis-inducing activity |  |  |
| B4 |  |  |  |  |  |  |  |  |  | bound to BON cells | but not QGP1 cells |

Reference: US12410234B2, “Compositions and methods for retrieving tumor-related antibodies and antigens” (THE TRUSTEES OF THE UNIVERSITY OF PENNSYLVANIA, priority 2018, dated 2025)
